{
  "source": "paper PMC5737116",
  "about": "“Biochemical Properties of Human D-Amino Acid Oxidase” (Frontiers in Molecular Biosciences, 2017)",
  "settings_in_all_cases": "other: apparent, 21% oxygen saturation, pH 8.5, 25°C",
  "key": {"N[C@H](CS)C(=O)O": {"system": "T1, N[C@H](CS)C(=O)O", "T1 construct": "made in house; host or cells: E. coli", "assay": "Oxygen-consumption activity assay, apparent kinetic parameters (substrate specificity)", "assay_type": "biochemical, human"}, "N[C@@H]1CON=C1O": {"system": "T2, N[C@@H]1CON=C1O", "T2 construct": "made in house; host or cells: E. coli", "assay": "Oxygen-consumption activity assay, apparent kinetic parameters (substrate specificity)", "assay_type": "biochemical, human"}, "[1]": {"system": "N[C@H](Cc1ccc(O)c(O)c1)C(=O)O", "assay": "purified protein, by the assay type"}},
  "data": [
    {"substance": "human DAAO (Homo sapiens)", "values": [
      {"measurement": "Km", "setting": "N[C@H](CS)C(=O)O", "value": "0.6 ± 0.1", "unit": "mM"},
      {"measurement": "kcat", "setting": "N[C@H](CS)C(=O)O", "value": "8.6 ± 0.2", "unit": "s⁻¹"},
      {"measurement": "kcat/Km", "setting": "N[C@H](CS)C(=O)O", "value": 14600, "unit": "M⁻¹ s⁻¹"},
      {"measurement": "Km", "setting": "N[C@@H]1CON=C1O", "value": "83.5 ± 15.0", "unit": "mM"},
      {"measurement": "kcat", "setting": "N[C@@H]1CON=C1O", "value": "0.77 ± 0.05", "unit": "s⁻¹"},
      {"measurement": "kcat/Km", "setting": "N[C@@H]1CON=C1O", "value": 9, "unit": "M⁻¹ s⁻¹"},
      {"measurement": "Km", "setting": "[1]", "value": 6, "unit": "mM"},
      {"measurement": "kcat", "setting": "[1]", "value": "40.5 ± 5.1 [21.7]^d s^−1"},
      {"measurement": "kcat/Km", "setting": "[1]", "value": "6.75 [14.4]^d mM^−1 x s^−1"}
    ]}
  ]
}
